Measured values published in patent US20260347484 (published 2026).

Target: human IGF-1R (human, UniProt P08069)
Experiment: BLI

B1: PHP1003-3 (designed binder)
chain 1: QVQLQQSGPGLVKPSQTLSLTCTVSGWSISGGWLWNWIRQPPGKGLQWIGWISWDGTNNWKPSLKDRVTISVDTSKNQFSLKLSSVTAADTAVWWCARWGRVFFDWWGQGTLVTVSS
chain 2: DIVMTQSPLSLPVTPGQPASISCRSSQSIVHSNGNTWLQWWLQKPGQSPQLLIWKVSNRLWGVPDRFSGSGSGTDFTLKISRVQAQDVGVWWCFQGSHVPWTFGQGTKVQIK
Q: B1 was tested. Which Kd did it give?
A: 1.85 nM
